Experimental data published in article PMC2568893, “Role of αBI5 and αBT162 residues in subunit interaction during oligomerization of αB-crystallin” (Molecular Vision, 2008).

What was measured:
[1] = molecular target: the molecule itself; assay: SEC-MALS; TSK G5000PWXL column, 100 µg protein, 50 mM phosphate, 150 mM NaCl, 0.02% sodium azide, pH 7.2, with the reducing agent TCEP; without it both Cys mutants formed larger oligomers
[2] = molecular target: αBT162C mutant of human αB-crystallin (human) (UniProt P02511); assay: FRET or BRET; amine-labelled proteins: Alexa Fluor 350 TFP ester (donor) and Alexa Fluor 488 TFP ester (acceptor); 50 µg of each labelled protein mixed at 37 °C; subunit exchange rate from Ft/F0

| rate of subunit exchange [2] | subunit interaction rate [2] | Binder | stoichiometry N [1] |
| --- | --- | --- | --- |
| 0.000655 s⁻¹ | 6.5e-05 s⁻¹ | αBI5C mutant of human αB-crystallin (natural protein, UniProt P02511 1-175, looked up, FRET assays only: Alexa Fluor 488 or Alexa Fluor 555 C5-maleimide on the cysteine (thiol-labelled), or Alexa Fluor 350 carboxylic acid TFP ester on amines (amine-labelled, donor); unlabelled in the other experiments, human αB-crystallin (HspB5), 175 amino acids, with I5C; cDNA in pET-23d(+); Homo-oligomer, on average 35 subunits when reduced; also called αB5C) MDIACHHPWIRRPFFPFHSPSRLFDQFFGEHLLESDLFPTSTSLSPFYLRPPSFLRAPSWFDTGLSEMRLEKDRFSVNLDVKHFSPEELKVKVLGDVIEVHGKHEERQDEHGFISREFHRKYRIPADVDPLTITSSLSSDGVLTVNGPRKQVSGPERTIPITREEKPAVTAAPKK | 35 subunits |
|  |  | αBT162C mutant of human αB-crystallin (natural protein, UniProt P02511 1-175, looked up, FRET assays only: Alexa Fluor 488 or Alexa Fluor 555 C5-maleimide on the cysteine (thiol-labelled), or Alexa Fluor 488 carboxylic acid TFP ester on amines (amine-labelled, acceptor); unlabelled in the other experiments, human αB-crystallin (HspB5), 175 amino acids, with T162C; cDNA in pET-23d(+); Homo-oligomer, on average 35 subunits when reduced; also called αB162C) MDIAIHHPWIRRPFFPFHSPSRLFDQFFGEHLLESDLFPTSTSLSPFYLRPPSFLRAPSWFDTGLSEMRLEKDRFSVNLDVKHFSPEELKVKVLGDVIEVHGKHEERQDEHGFISREFHRKYRIPADVDPLTITSSLSSDGVLTVNGPRKQVSGPERTIPICREEKPAVTAAPKK | 35 subunits |
